# According to publication PMC11461620 (Nature Communications, 2024):
# B1: β-barrel domain of E. coli BamA (residues 426–810) (domain or fragment)
# chain: not shown
# modifications: biotin (EZ-Link NHS-PEG4-Biotin, chemical) in the SPR experiment only
# Biological target: the molecule itself
# Experiment: crystal structure
protein,measurement,value
B1,binding result,binds
